The text below walks through data of US20190062417A1 (SHANGHAI JW INFLINHIX, published 2019).

This test deals with T1, TNF receptors on the surface of L929 cells (mouse (L929 cells), UniProt P25118 30-454).
T1 construct: whole, on cells; the Methods stain with anti-TNFR1; also called cell surface receptors; TNF cell membrane surface receptors
T1 sequence (looked up): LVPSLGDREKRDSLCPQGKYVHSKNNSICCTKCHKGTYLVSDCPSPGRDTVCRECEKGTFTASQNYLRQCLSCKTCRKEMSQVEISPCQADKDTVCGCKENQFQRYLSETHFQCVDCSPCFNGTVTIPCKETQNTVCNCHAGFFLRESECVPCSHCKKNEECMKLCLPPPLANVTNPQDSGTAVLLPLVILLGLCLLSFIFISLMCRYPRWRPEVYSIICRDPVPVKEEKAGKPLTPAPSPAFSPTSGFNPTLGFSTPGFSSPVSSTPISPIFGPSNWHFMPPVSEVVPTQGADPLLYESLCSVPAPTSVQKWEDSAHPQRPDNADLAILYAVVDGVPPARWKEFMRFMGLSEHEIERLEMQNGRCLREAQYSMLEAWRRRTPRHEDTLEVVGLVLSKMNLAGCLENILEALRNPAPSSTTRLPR
The experiment in a line: confocal microscopy on L929 cells, 244-12 alone.

Procedure: The cells were fixed with 4% paraformaldehyde (in PBS) for 10 min, blocked in a phosphate-buffer containing 0.5% BSA and 0.1% cold water fish-gelatin for 15min and subsequently incubated with rabbit anti-TNFR1 antibodies (Abcam) for 1 hour. […] PBS-washed specimens were then mounted in Gelvatol/DABCO (Sigma-Aldrich). DNA was counterstained with DAPI (Sigma-Aldrich). All samples were analyzed by fluorescent microscopy using a Nikon Eclipse 80i at 60×. Images were acquired with MS-Elements AR3.0 software using a Hamamatsu camera.

B1: monoclonal antibody 244-12 (antibody, mouse IgG2b, kappa, V domains shown)
VH: QIQLVQSGPELKKPGETVKISCKASGYTFTNYGMNWVKQAPGKGLKWMGWINTYTGEPTYADDFKGRFAFSLETSANTAYLQINNLRNEGMATYFCARHYRYAWFPYWGQGTLVTVSA
VL: DIQMTQSPASLSASVGETVTITCRASGNIHIYLAWYQQKQGKSPQLLVYNAKTLADGVPSRFSGSGSGTQYSLKINSLQPEDFGSYYCQHFWSIPWTFGGGTKLEIKR
notes: also called antibody of the present invention
As for B1, the binding result is given as “no binding”.
